In article PMC3724922 (PLoS ONE, 2013):

Columns and labels:
[1] = molecular target: the molecule itself; assay: native gel or EMSA; purified recombinant proteins, non-reducing, non-denaturing electrophoresis (SDS- and DTT-free loading buffer), immunoblot with anti-laforin or anti-HIS antibody; self-association, monomer and dimer bands
[2] = molecular target: the molecule itself; assay: native gel or EMSA; purified recombinant proteins incubated with 10 mM H2O2, then non-reducing, non-denaturing electrophoresis, anti-laforin immunoblot

Protein	binding result [1]	binding result [2]
laforin C109S/110S, recombinant, no epitope tag (enzyme, human, UniProt O95278 1-331, looked up, laforin, human, 331 amino acids (EPM2A), double mutant C109S/110S; source: E. coli BL21 (RIL), pET21b+, purified (amylose resin)) MRFRFGVVVPPAVAGARPELLVVGSRPELGRWEPRGAVRLRPAGTAAGDGALALQEPGLWLGEVELAAEEAAQDGAEPGRVDTFWYKFLKREPGGELSWEGNGPHHDRSSTYNENNLVDGVYCLPIGHWIEATGHTNEMKHTTDFYFNIAGHQAMHYSRILPNIWLGSCPRQVEHVTIKLKHELGITAVMNFQTEWDIVQNSSGCNRYPEPMTPDTMIKLYREEGLAYIWMPTPDMSTEGRVQMLPQAVCLLHALLEKGHIVYVHCNAGVGRSTAAVCGWLQYVMGWNLRKVQYFLMAKRPAVYIDEEALARAQEDFFQKFGKVRSSVCSL	binds	
laforin C123S, recombinant, no epitope tag (enzyme, human, UniProt O95278 1-331, looked up, laforin, human, 331 amino acids (EPM2A), mutant C123S; source: E. coli BL21 (RIL), pET21b+, purified (amylose resin)) MRFRFGVVVPPAVAGARPELLVVGSRPELGRWEPRGAVRLRPAGTAAGDGALALQEPGLWLGEVELAAEEAAQDGAEPGRVDTFWYKFLKREPGGELSWEGNGPHHDRCCTYNENNLVDGVYSLPIGHWIEATGHTNEMKHTTDFYFNIAGHQAMHYSRILPNIWLGSCPRQVEHVTIKLKHELGITAVMNFQTEWDIVQNSSGCNRYPEPMTPDTMIKLYREEGLAYIWMPTPDMSTEGRVQMLPQAVCLLHALLEKGHIVYVHCNAGVGRSTAAVCGWLQYVMGWNLRKVQYFLMAKRPAVYIDEEALARAQEDFFQKFGKVRSSVCSL	binds	
laforin wild type, recombinant, no epitope tag (enzyme, human, UniProt O95278 1-331, looked up, laforin, human, a 331 amino acid protein encoded by EPM2A; amplified from pEG202-laforin into pET21b+ (NdeI, NotI); also called laforin WT; wt laforin; source: E. coli BL21 (RIL), pET21b+-laforin, purified (amylose resin)) MRFRFGVVVPPAVAGARPELLVVGSRPELGRWEPRGAVRLRPAGTAAGDGALALQEPGLWLGEVELAAEEAAQDGAEPGRVDTFWYKFLKREPGGELSWEGNGPHHDRCCTYNENNLVDGVYCLPIGHWIEATGHTNEMKHTTDFYFNIAGHQAMHYSRILPNIWLGSCPRQVEHVTIKLKHELGITAVMNFQTEWDIVQNSSGCNRYPEPMTPDTMIKLYREEGLAYIWMPTPDMSTEGRVQMLPQAVCLLHALLEKGHIVYVHCNAGVGRSTAAVCGWLQYVMGWNLRKVQYFLMAKRPAVYIDEEALARAQEDFFQKFGKVRSSVCSL		binds
laforin C205S, recombinant, no epitope tag (enzyme, human, UniProt O95278 1-331, looked up, laforin, human, 331 amino acids (EPM2A), mutant C205S; source: E. coli BL21 (RIL), pET21b+, purified (amylose resin)) MRFRFGVVVPPAVAGARPELLVVGSRPELGRWEPRGAVRLRPAGTAAGDGALALQEPGLWLGEVELAAEEAAQDGAEPGRVDTFWYKFLKREPGGELSWEGNGPHHDRCCTYNENNLVDGVYCLPIGHWIEATGHTNEMKHTTDFYFNIAGHQAMHYSRILPNIWLGSCPRQVEHVTIKLKHELGITAVMNFQTEWDIVQNSSGSNRYPEPMTPDTMIKLYREEGLAYIWMPTPDMSTEGRVQMLPQAVCLLHALLEKGHIVYVHCNAGVGRSTAAVCGWLQYVMGWNLRKVQYFLMAKRPAVYIDEEALARAQEDFFQKFGKVRSSVCSL	binds	
wild type laforin with an amino-terminal HIS6 epitope (enzyme, human, UniProt O95278 1-331, looked up, laforin, human, 331 amino acids (EPM2A); The plasmid of the His6 constructs is not described in the methods; also called laforin-WT; WT; not shown: His6, N-terminal, kept) MRFRFGVVVPPAVAGARPELLVVGSRPELGRWEPRGAVRLRPAGTAAGDGALALQEPGLWLGEVELAAEEAAQDGAEPGRVDTFWYKFLKREPGGELSWEGNGPHHDRCCTYNENNLVDGVYCLPIGHWIEATGHTNEMKHTTDFYFNIAGHQAMHYSRILPNIWLGSCPRQVEHVTIKLKHELGITAVMNFQTEWDIVQNSSGCNRYPEPMTPDTMIKLYREEGLAYIWMPTPDMSTEGRVQMLPQAVCLLHALLEKGHIVYVHCNAGVGRSTAAVCGWLQYVMGWNLRKVQYFLMAKRPAVYIDEEALARAQEDFFQKFGKVRSSVCSL	binds	
laforin C169S, recombinant, no epitope tag (enzyme, human, UniProt O95278 1-331, looked up, laforin, human, 331 amino acids (EPM2A), mutant C169S; source: E. coli BL21 (RIL), pET21b+, purified (amylose resin)) MRFRFGVVVPPAVAGARPELLVVGSRPELGRWEPRGAVRLRPAGTAAGDGALALQEPGLWLGEVELAAEEAAQDGAEPGRVDTFWYKFLKREPGGELSWEGNGPHHDRCCTYNENNLVDGVYCLPIGHWIEATGHTNEMKHTTDFYFNIAGHQAMHYSRILPNIWLGSSPRQVEHVTIKLKHELGITAVMNFQTEWDIVQNSSGCNRYPEPMTPDTMIKLYREEGLAYIWMPTPDMSTEGRVQMLPQAVCLLHALLEKGHIVYVHCNAGVGRSTAAVCGWLQYVMGWNLRKVQYFLMAKRPAVYIDEEALARAQEDFFQKFGKVRSSVCSL	binds	
laforin C250S, recombinant, no epitope tag (enzyme, human, UniProt O95278 1-331, looked up, laforin, human, 331 amino acids (EPM2A), mutant C250S; source: E. coli BL21 (RIL), pET21b+, purified (amylose resin)) MRFRFGVVVPPAVAGARPELLVVGSRPELGRWEPRGAVRLRPAGTAAGDGALALQEPGLWLGEVELAAEEAAQDGAEPGRVDTFWYKFLKREPGGELSWEGNGPHHDRCCTYNENNLVDGVYCLPIGHWIEATGHTNEMKHTTDFYFNIAGHQAMHYSRILPNIWLGSCPRQVEHVTIKLKHELGITAVMNFQTEWDIVQNSSGCNRYPEPMTPDTMIKLYREEGLAYIWMPTPDMSTEGRVQMLPQAVSLLHALLEKGHIVYVHCNAGVGRSTAAVCGWLQYVMGWNLRKVQYFLMAKRPAVYIDEEALARAQEDFFQKFGKVRSSVCSL	binds	
laforin C266S, recombinant, no epitope tag (enzyme, human, UniProt O95278 1-331, looked up, laforin, human, 331 amino acids (EPM2A), catalytic cysteine mutant C266S; source: E. coli BL21 (RIL), pET21b+, purified (amylose resin)) MRFRFGVVVPPAVAGARPELLVVGSRPELGRWEPRGAVRLRPAGTAAGDGALALQEPGLWLGEVELAAEEAAQDGAEPGRVDTFWYKFLKREPGGELSWEGNGPHHDRCCTYNENNLVDGVYCLPIGHWIEATGHTNEMKHTTDFYFNIAGHQAMHYSRILPNIWLGSCPRQVEHVTIKLKHELGITAVMNFQTEWDIVQNSSGCNRYPEPMTPDTMIKLYREEGLAYIWMPTPDMSTEGRVQMLPQAVCLLHALLEKGHIVYVHSNAGVGRSTAAVCGWLQYVMGWNLRKVQYFLMAKRPAVYIDEEALARAQEDFFQKFGKVRSSVCSL	binds	
